First the molecules themselves.
B1: [99mTc]Tc-N4-JR11 (peptide)
chain: {(99mTc)Tc‑N4-Cpa}-[dC][Aph(Hor)][dPhe(4-NHCONH2)]KTC[dY]-NH2
modifications: disulfide 1-6 (inferred); reading uncertain; also: 99mTc complex, printed as Cpa-c(dCys-Aph(Hor)-dAph(Cbm)-Lys-Thr-Cys)-dTyr-NH2
B2: [99mTc]Tc-HYNIC-Ahx-JR11 (peptide)
chain: {(99mTc)Tc‑HYNIC/EDDA-Ahx-Cpa}-[dC][Aph(Hor)][dPhe(4-NHCONH2)]KTC[dY]-NH2
modifications: disulfide 1-6 (inferred); reading uncertain; also: 99mTc complex, EDDA coligand, printed as Cpa-c(dCys-Aph(Hor)-dAph(Cbm)-Lys-Thr-Cys)-dTyr-NH2

Bridges are numbered along the chain shown (N, C = ends). [ ]: non-standard residue; d: D form. Aph(Hor) = 4-amino-phenylalanine(L-hydroorotic acid); dPhe(4-NHCONH2) = NC(=O)Nc1ccc(C[C@@H](N)C(=O)O)cc1; Cpa = not defined here; Ahx = NCCCCCC(=O)O

The target of this assay is somatostatin receptor type 2 (SST2) (Homo sapiens, UniProt P30874). Briefly: saturation binding of radioligand on HEK-SST2 cell membranes.
Sequence of somatostatin receptor type 2 (SST2) (P30874 whole entry): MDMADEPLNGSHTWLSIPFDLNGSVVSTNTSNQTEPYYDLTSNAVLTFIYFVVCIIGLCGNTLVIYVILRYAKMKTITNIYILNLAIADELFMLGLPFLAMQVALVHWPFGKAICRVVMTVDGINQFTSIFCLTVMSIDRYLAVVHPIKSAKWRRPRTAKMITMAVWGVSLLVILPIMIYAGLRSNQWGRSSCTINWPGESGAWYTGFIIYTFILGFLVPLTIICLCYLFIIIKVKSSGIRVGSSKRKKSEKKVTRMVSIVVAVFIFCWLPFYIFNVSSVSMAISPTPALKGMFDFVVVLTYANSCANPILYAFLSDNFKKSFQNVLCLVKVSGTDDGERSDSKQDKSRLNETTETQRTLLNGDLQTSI
By Kd is commonly meant a measure of binding affinity in units of concentration. Regarding {(99mTc)Tc‑N4-Cpa}-[dC]Y[dW]KTC[dY]-NH2 (disulfide 1-6 (inferred); reading uncertain; also: 99mTc complex) [[99mTc]Tc-N4-SS01], the Kd was determined as 0.92 nM.

B1 came in with an equilibrium dissociation constant (Kd) of 0.6 nM. In the case of B2 it was 0.85 nM; in that of {(99mTc)Tc‑HYNIC/EDDA-Ahx-Cpa}-[dC]Y[dW]KTC[dY]-NH2 (disulfide 1-6 (inferred); reading uncertain; also: 99mTc complex, EDDA coligand) [[99mTc]Tc-HYNIC-Ahx-SS01], 1.6 nM.

Values taken from article PMC8065591 (2021).
